These results are taken from patent US20250042956A1.

In assay [1] the target is AT1G22950.1 ICU11 (Arabidopsis thaliana) (UniProt Q3ED68). Briefly: IP-MS rep 1.
Assay [2] deals with AT5G11530.1 EMF1 (Arabidopsis thaliana) (UniProt Q9LYD9). Briefly: IP-MS rep 1.
Assay [3] addresses AT3G18210.1 CP2 (Arabidopsis thaliana) (UniProt P0DO23). The assay is described as follows: IP-MS rep 1.
In assay [4] the target is AT3G10490.2 NAC052 (Arabidopsis thaliana) (UniProt Q9SQY0). Briefly: IP-MS rep 1.
For assay [5], the target named is AT5G58230.1 MSI1 (Arabidopsis thaliana) (UniProt O22467). Briefly: IP-MS rep 1.
The target in assay [6] is T1, AT5G67580.1 TRB2 (Arabidopsis thaliana) (UniProt Q9FJW5).
T1 sequence: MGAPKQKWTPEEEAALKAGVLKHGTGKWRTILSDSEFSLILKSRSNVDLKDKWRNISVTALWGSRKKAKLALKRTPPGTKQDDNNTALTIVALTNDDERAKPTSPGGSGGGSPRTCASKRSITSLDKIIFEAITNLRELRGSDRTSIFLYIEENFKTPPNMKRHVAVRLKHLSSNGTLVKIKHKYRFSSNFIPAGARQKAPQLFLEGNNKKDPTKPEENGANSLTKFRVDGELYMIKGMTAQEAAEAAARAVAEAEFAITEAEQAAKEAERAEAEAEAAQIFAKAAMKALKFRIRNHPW
The assay is described as follows: IP-MS rep 1.

Assay [7] addresses AT3G20740.1 FIE (Arabidopsis thaliana) (UniProt Q9LT47). Briefly: IP-MS rep 1.
Assay [8] has as its target AT3G10480.3 NAC050 (Arabidopsis thaliana) (UniProt Q9SQX9). The assay is described as follows: IP-MS rep 1.
In assay [9] the target is AT1G22950.1 ICU11 (Arabidopsis thaliana) (UniProt Q3ED68). Briefly: IP-MS rep 2.
Assay [10] addresses AT5G11530.1 EMF1 (Arabidopsis thaliana) (UniProt Q9LYD9). Briefly: IP-MS rep 2.
The target of assay [11] is AT3G18210.1 CP2 (Arabidopsis thaliana) (UniProt P0DO23). The assay is described as follows: IP-MS rep 2.
For assay [12], the target named is AT3G10490.2 NAC052 (Arabidopsis thaliana) (UniProt Q9SQY0). Briefly: IP-MS rep 2.
Assay [13] concerns the target AT5G58230.1 MSI1 (Arabidopsis thaliana) (UniProt O22467). The assay is described as follows: IP-MS rep 2.
For assay [14], the target named is T1, AT5G67580.1 TRB2 (Arabidopsis thaliana). Briefly: IP-MS rep 2.
Assay [15] has as its target AT3G20740.1 FIE (Arabidopsis thaliana) (UniProt Q9LT47). Briefly: IP-MS rep 2.
The target in assay [16] is AT3G10480.3 NAC050 (Arabidopsis thaliana) (UniProt Q9SQX9). Briefly: IP-MS rep 2.
The target in assay [17] is AT1G22950.1 ICU11 (Arabidopsis thaliana) (UniProt Q3ED68). Briefly: X-link IP-MS.
In assay [18] the target is AT5G11530.1 EMF1 (Arabidopsis thaliana) (UniProt Q9LYD9). The assay is described as follows: X-link IP-MS.
Assay [19] addresses AT3G18210.1 CP2 (Arabidopsis thaliana) (UniProt P0DO23). Briefly: X-link IP-MS.
Assay [20] concerns the target AT3G10490.2 NAC052 (Arabidopsis thaliana) (UniProt Q9SQY0). The assay is described as follows: X-link IP-MS.
Assay [21] concerns the target AT5G58230.1 MSI1 (Arabidopsis thaliana) (UniProt O22467). Briefly: X-link IP-MS.
The target of assay [22] is T1, AT5G67580.1 TRB2 (Arabidopsis thaliana). Briefly: X-link IP-MS.
For assay [23], the target named is AT3G20740.1 FIE (Arabidopsis thaliana) (UniProt Q9LT47). Briefly: X-link IP-MS.
In assay [24] the target is AT3G10480.3 NAC050 (Arabidopsis thaliana) (UniProt Q9SQX9). Briefly: X-link IP-MS.

Chain of AT3G20740.1 FIE (Arabidopsis thaliana) (Q9LT47 whole entry): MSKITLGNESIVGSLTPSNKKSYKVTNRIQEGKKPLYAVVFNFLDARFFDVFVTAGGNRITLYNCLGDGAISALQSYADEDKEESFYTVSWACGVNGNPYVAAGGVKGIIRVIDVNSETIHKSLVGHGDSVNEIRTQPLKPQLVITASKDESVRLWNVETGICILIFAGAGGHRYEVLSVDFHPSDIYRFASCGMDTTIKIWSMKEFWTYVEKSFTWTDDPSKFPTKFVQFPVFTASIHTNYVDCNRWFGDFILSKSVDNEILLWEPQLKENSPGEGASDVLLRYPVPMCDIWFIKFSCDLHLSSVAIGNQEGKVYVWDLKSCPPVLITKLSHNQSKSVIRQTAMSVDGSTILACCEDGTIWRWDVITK
Chain of AT3G18210.1 CP2 (Arabidopsis thaliana) (P0DO23 whole entry): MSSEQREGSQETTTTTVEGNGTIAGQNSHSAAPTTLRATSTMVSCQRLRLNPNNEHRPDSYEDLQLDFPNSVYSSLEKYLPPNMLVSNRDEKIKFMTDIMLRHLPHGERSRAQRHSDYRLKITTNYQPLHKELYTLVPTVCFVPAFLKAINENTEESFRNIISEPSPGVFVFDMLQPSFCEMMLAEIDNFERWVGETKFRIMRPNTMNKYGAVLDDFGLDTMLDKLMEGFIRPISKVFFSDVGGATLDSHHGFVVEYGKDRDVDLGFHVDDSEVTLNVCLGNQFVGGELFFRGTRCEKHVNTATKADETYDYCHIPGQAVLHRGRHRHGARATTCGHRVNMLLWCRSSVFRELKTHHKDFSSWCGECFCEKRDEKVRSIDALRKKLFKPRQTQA
Chain of AT3G10490.2 NAC052 (Arabidopsis thaliana) (Q9SQY0 whole entry): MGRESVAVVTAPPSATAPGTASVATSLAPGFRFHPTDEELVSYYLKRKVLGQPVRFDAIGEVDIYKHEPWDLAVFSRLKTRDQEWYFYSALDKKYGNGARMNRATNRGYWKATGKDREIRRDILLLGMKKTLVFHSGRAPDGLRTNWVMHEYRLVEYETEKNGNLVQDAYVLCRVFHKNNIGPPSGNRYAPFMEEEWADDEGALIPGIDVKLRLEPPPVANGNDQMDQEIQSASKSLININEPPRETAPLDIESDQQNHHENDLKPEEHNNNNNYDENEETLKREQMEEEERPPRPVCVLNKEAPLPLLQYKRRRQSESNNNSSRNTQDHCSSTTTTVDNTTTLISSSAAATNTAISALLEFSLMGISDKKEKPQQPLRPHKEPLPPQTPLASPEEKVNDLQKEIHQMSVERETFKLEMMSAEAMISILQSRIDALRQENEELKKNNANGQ
Chain of AT1G22950.1 ICU11 (Arabidopsis thaliana) (Q3ED68 whole entry): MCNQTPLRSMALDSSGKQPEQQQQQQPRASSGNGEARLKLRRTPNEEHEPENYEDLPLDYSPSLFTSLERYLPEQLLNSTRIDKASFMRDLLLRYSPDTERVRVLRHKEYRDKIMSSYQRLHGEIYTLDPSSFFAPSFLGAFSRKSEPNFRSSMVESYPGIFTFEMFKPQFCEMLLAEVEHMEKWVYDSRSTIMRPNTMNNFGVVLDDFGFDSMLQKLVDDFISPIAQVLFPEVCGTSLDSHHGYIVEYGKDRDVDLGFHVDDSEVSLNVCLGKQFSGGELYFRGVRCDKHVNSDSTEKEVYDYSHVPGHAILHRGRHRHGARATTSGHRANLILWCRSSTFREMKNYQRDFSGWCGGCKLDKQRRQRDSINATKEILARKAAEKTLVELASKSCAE
Chain of AT3G10480.3 NAC050 (Arabidopsis thaliana) (Q9SQX9 whole entry): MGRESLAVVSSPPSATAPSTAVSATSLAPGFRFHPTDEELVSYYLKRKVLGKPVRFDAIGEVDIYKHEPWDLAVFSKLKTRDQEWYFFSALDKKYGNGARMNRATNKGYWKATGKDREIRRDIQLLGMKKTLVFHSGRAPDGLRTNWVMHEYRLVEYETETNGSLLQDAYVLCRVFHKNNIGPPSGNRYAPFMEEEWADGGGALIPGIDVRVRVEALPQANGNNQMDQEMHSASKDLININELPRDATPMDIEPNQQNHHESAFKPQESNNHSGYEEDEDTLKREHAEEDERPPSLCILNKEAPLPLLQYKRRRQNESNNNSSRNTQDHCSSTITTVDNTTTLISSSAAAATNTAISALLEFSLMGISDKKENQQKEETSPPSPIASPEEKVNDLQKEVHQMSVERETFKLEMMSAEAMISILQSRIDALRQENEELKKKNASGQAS
Chain of AT5G11530.1 EMF1 (Arabidopsis thaliana) (Q9LYD9 whole entry): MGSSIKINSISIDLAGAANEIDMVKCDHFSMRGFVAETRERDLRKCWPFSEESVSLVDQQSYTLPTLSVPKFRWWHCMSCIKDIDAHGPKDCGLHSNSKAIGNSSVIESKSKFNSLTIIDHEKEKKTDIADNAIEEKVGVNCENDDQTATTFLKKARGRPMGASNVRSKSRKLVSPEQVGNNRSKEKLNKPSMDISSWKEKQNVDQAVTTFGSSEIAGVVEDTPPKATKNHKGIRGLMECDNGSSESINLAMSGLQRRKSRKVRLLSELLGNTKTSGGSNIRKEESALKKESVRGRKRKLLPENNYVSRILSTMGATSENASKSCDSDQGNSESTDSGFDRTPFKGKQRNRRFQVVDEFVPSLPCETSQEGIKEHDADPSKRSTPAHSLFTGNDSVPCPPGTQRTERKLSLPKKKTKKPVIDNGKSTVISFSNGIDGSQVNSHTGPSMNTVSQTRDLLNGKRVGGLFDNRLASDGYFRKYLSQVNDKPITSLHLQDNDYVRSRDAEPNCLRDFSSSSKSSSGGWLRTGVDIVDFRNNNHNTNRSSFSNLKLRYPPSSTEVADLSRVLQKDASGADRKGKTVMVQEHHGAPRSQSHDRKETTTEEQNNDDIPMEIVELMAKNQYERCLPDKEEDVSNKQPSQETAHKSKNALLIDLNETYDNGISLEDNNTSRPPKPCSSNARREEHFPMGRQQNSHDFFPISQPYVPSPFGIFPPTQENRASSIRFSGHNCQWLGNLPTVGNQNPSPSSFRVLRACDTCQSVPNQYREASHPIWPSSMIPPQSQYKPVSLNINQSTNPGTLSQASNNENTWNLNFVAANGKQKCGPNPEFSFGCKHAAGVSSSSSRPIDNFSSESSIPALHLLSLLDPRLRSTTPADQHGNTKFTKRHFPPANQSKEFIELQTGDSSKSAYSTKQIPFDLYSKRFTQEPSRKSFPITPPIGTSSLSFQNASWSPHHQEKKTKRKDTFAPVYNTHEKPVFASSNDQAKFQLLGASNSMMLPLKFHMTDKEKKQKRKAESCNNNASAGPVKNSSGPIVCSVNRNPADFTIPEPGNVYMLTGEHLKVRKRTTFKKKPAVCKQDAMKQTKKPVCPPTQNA
Chain of AT5G58230.1 MSI1 (Arabidopsis thaliana) (O22467 whole entry): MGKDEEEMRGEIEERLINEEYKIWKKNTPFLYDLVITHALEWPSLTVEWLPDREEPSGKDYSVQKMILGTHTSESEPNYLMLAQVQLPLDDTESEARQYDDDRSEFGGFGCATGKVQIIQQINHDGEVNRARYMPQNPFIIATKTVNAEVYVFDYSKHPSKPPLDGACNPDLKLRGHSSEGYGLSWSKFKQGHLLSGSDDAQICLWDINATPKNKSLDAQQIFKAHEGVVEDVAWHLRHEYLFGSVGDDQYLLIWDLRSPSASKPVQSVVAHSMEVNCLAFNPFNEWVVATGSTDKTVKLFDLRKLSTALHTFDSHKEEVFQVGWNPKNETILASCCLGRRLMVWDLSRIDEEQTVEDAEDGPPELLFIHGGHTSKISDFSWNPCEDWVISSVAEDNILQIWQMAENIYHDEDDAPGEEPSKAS

As to FLAG-TRB1 (from UniProt Q8VWK4 1-300), the IP-MS count in [1] came to 75; in assay [2] it was 3; in [3], 13; in [4], 103; in assay [5], 11; in assay [6], 0. In addition, the IP-MS count was determined as 1 in assay [7]; 33 in assay [8]; 79 in [9]; 2 in [10]; 17 in assay [11]; 103 in assay [12]. The IP-MS count was determined as 12 in assay [13]; 0 in assay [14]; 3 in [15]; 35 in assay [16]; 27 in assay [17]; 11 in [18]. Besides, the IP-MS count in assay [19] turned out to be 11; in [20], 55; in assay [21], 12; in assay [22] it was 2; in [23], 5; in assay [24] it was 40.
